Consider three molecules from PMC3143821 (Molecular cell, 2011).

The labels stand for the following.
B1: PACT (natural protein, human, UniProt O75569 1-313, looked up)
chain: MSQSRHRAEAPPLEREDSGTFSLGKMITAKPGKTPIQVLHEYGMKTKNIPVYECERSDVQIHVPTFTFRVTVGDITCTGEGTSKKLAKHRAAEAAINILKANASICFAVPDPLMPDPSKQPKNQLNPIGSLQELAIHHGWRLPEYTLSQEGGPAHKREYTTICRLESFMETGKGASKKQAKRNAAEKFLAKFSNISPENHISLTNVVGHSLGCTWHSLRNSPGEKINLLKRSLLSIPNTDYIQLLSEIAKEQGFNITYLDIDELSANGQYQCLAELSTSPITVCHGSGISCGNAQSDAAHNALQYLKIIAERK
B2: Argonaute2 (Ago2) (enzyme)
chain: not shown
B3: TRBP (natural protein, human, UniProt Q15633 1-366, looked up)
chain: MSEEEQGSGTTTGCGLPSIEQMLAANPGKTPISLLQEYGTRIGKTPVYDLLKAEGQAHQPNFTFRVTVGDTSCTGQGPSKKAAKHKAAEVALKHLKGGSMLEPALEDSSSFSPLDSSLPEDIPVFTAAAAATPVPSVVLTRSPPMELQPPVSPQQSECNPVGALQELVVQKGWRLPEYTVTQESGPAHRKEFTMTCRVERFIEIGSGTSKKLAKRNAAAKMLLRVHTVPLDARDGNEVEPDDDHFSIGVGSRLDGLRNRGPGCTWDSLRNSVGEKILSLRSCSLGSLGALGPACCRVLSELSEEQAFHVSYLDIEELSLSGLCQCLVELSTQPATVCHGSATTREAARGEAARRALQYLKIMAGSK

The target of this test is human Dicer (human, UniProt Q9UPY3 1-1922). As to the kind of experiment: in vitro reconstitution of the complex.
Chain of human Dicer (Q9UPY3 whole entry): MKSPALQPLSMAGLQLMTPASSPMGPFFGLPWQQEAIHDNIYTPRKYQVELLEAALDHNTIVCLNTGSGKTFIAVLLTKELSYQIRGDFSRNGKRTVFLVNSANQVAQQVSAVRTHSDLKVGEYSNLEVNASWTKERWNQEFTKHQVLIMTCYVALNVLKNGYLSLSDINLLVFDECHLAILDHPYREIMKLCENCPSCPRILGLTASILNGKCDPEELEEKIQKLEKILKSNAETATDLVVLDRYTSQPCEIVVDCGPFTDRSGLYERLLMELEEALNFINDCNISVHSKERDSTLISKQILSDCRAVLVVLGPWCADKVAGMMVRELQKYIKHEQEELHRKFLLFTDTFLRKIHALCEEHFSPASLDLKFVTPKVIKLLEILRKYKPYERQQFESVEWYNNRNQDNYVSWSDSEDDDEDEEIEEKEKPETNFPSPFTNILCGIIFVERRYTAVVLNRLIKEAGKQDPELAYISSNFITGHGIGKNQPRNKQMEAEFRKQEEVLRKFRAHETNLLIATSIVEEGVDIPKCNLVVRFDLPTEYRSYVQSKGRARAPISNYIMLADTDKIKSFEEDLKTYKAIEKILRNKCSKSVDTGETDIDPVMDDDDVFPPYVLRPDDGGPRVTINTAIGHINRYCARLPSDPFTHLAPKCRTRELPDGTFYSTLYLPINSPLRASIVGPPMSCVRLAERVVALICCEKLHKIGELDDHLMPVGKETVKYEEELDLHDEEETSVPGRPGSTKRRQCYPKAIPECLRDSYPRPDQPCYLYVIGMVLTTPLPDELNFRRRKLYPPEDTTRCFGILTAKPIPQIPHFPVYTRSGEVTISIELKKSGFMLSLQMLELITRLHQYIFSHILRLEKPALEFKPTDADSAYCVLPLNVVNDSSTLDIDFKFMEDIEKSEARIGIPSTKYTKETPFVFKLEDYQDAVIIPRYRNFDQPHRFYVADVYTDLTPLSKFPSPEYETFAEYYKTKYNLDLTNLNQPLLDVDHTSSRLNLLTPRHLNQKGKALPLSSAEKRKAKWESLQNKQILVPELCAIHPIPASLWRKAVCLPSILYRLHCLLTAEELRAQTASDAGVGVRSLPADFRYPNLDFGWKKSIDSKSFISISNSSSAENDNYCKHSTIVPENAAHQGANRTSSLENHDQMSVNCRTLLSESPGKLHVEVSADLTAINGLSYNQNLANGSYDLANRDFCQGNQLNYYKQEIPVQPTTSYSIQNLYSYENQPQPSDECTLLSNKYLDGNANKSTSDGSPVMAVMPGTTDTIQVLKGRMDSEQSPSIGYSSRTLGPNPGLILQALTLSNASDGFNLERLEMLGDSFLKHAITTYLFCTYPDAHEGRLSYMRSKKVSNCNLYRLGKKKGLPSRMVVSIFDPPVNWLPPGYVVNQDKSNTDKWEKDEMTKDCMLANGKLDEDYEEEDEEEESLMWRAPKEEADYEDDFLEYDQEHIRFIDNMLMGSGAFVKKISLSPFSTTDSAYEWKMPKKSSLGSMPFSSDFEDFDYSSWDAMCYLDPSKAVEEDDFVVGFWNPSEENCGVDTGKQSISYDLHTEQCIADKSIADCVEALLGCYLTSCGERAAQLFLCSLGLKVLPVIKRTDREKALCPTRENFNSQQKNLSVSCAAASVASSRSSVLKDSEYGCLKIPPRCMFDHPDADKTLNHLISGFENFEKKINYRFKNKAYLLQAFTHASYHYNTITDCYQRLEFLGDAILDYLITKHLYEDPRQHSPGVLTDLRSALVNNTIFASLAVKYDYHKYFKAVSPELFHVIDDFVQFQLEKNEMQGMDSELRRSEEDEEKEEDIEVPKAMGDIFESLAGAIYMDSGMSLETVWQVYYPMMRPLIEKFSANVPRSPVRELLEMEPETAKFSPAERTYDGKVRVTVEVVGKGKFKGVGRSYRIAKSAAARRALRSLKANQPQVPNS
As for B1, the binding result is “binds”.

B2: the binding result is listed as “binds”.

Take B3: the binding result is reported as “binds”.
